Experimental findings from patent US20130337002A1 are described below.

Among the targets are HLA-A11; HLA-B15; HLA-A2; HLA-A3; HLA-A1; HLA-A29; HLA-B35; HLA-B8; HLA-B27; HLA-A24; HLA-B14; HLA-B7.
Common to all, as to test: REVEAL MHC-peptide binding

Regarding AEL[Nle]GYIPL (peptide), the % of positive control with HLA-A11 came to 3.61%; with HLA-B15 it was 10.2%; in the experiment with HLA-A2, 7.49%; with HLA-A3 it was 3.05%; in the experiment with HLA-A1 it was 16.6%; with HLA-A29, 20.8%. The % of positive control amounted to 1.91% with HLA-B35; 14.7% with HLA-B8; 0.77% with HLA-B27; 0.37% with HLA-A24; 0.12% with HLA-B14; 1.11% with HLA-B7.
Turning to EL[Nle]GYIPLI (peptide), the % of positive control in the experiment with HLA-A11 came out at 3.21%; with HLA-B15, 8.91%; in the experiment with HLA-A2 it was 97.9%; with HLA-A3, 4.54%; with HLA-A1, 18.3%; with HLA-A29 it was 20.9%. Moreover, the % of positive control with HLA-B35 was determined as 2.55%; with HLA-B8 it was 17.1%; in the experiment with HLA-B27 it was 0.67%; with HLA-A24, 0.92%; with HLA-B14 it was 0.14%; in the experiment with HLA-B7, 0.68%.
Consider GP[Cit]IGVRAT (peptide), for which the % of positive control was 2.72% with HLA-A11; 7.29% with HLA-B15; 9.16% with HLA-A2; 3.48% with HLA-A3; 18.6% with HLA-A1; 11.9% in the experiment with HLA-A29. Further, the % of positive control was 2.25% with HLA-B35; 9.99% with HLA-B8; 0.59% in the experiment with HLA-B27; 0.16% with HLA-A24; 0.13% with HLA-B14; 5.38% with HLA-B7.
With L[Nle]GYIPLIG (peptide), the % of positive control in the experiment with HLA-A11 came to 2.48%; in the experiment with HLA-B15 it was 14.6%; with HLA-A2, 49.5%; with HLA-A3 it was 3.98%; in the experiment with HLA-A1, 14.3%; with HLA-A29 it was 25.9%. For the same substance, the % of positive control with HLA-B35 turned out to be 2.85%; in the experiment with HLA-B8 it was 17.3%; with HLA-B27, 0.73%; in the experiment with HLA-A24, 0.71%; with HLA-B14, 0.15%; in the experiment with HLA-B7, 0.89%.
For P[Cit]IGVRAT[Cit] (peptide), the % of positive control worked out at 1.72% in the experiment with HLA-A11; 12.6% with HLA-B15; 7.36% in the experiment with HLA-A2; 2.52% in the experiment with HLA-A3; 18.8% in the experiment with HLA-A1; 14.1% in the experiment with HLA-A29. For the same substance, the % of positive control in the experiment with HLA-B35 was 2.45%; with HLA-B8, 9.47%; with HLA-B27, 0.94%; with HLA-A24 it was 0.21%; in the experiment with HLA-B14 it was 0.19%; in the experiment with HLA-B7, 1.91%.
In the case of [Cit]IGVRAT[Cit]R (peptide), the % of positive control with HLA-A11 was found to be 8.27%; in the experiment with HLA-B15, 14.4%; with HLA-A2, 8.17%; with HLA-A3 it was 25.2%; with HLA-A1 it was 19.7%; with HLA-A29 it was 16.7%. Besides, the % of positive control was 8.51% with HLA-B35; 12.1% with HLA-B8; 0.86% with HLA-B27; 0.5% with HLA-A24; 0.17% with HLA-B14; 14.6% in the experiment with HLA-B7.
Consider [Nle]GYIPLIGA (peptide), for which the % of positive control turned out to be 7.27% with HLA-A11; 11.1% in the experiment with HLA-B15; 10.4% in the experiment with HLA-A2; 3.13% with HLA-A3; 17.9% with HLA-A1; 27.9% with HLA-A29. Also, the % of positive control with HLA-B35 came to 5.89%; in the experiment with HLA-B8, 21.4%; in the experiment with HLA-B27 it was 1.42%; with HLA-A24, 1.33%; in the experiment with HLA-B14, 0.29%; with HLA-B7, 1.78%.
